The target of assay [1] is T1, GB1-tagged ks-vFLIP (residues 1 to 188) (Kaposi's sarcoma-associated herpesvirus …, UniProt Q76RF1 1-188).
T1 construct: KSHV vFLIP (ks-vFLIP), residues 1 to 188, cloned into GB1-pBR22b (modified pET22b); GB1 is the streptococcal protein G immunoglobulin domain fusion tag; also called GB1–ks-vFLIP; GB1-vFLIP; source: E. coli BL21(DE3), purified (His-trap, Superdex S75 size exclusion); not shown: GB1, N-terminal, kept
Nature of the assay: ITC; competition: GB1–ks-vFLIP first incubated with 20 μM spIKKγ and 4% DMSO, then titrated with IKKγ(150–272); deionized water, 25°C; apparent. As to conditions: both partners purified.

Assay [2] concerns the target T1, GB1-tagged ks-vFLIP (residues 1 to 188). Nature of the assay: ITC; IKKγ(150–272) (~85-100 μM, syringe) titrated into GB1-vFLIP (~8-10 μM, cell); deionized water, 4% DMSO, 25°C; one-site model; apparent. The following applies: both partners purified. On the technique in general: In ITC the heat of successive injections is recorded.

Positions of bridges follow the written chain, without caps; N, C: chain ends. Non-standard residues stand in square brackets, D forms with d. No end group written: not given here. S5 = C=CCCC[C@](C)(N)C(=O)O

B1: spIKKγ, conformationally constrained stapled 20-mer peptide of the IKKγ minimal interacting motif (L (peptide)
chain: LQVAYH[S5]LFQ[S5]YDNHIKSSC
modifications: staple 7-11
In the case of B1, the Ki in assay [1] came out at 257 nM.

B2: IKKγ fragment encompassing residues 150 to 272 (domain or fragment, UniProt Q9Y6K9 150-272, looked up)
chain: LGELQESQSRLEAATKECQALEGRARAASEQARQLESEREALQQQHSVQVDQLRMQGQSVEAALRMERQAASEEKRKLAQLQVAYHQLFQEYDNHIKSSVVGSERKRGMQLEDLKQQLQQAEE
notes: also called IKKγ(150–272); NEMO
In the case of B2, the Kd in assay [2] was found to be 380 nM. Moreover, the “apparent Kd in the presence of spIKKγ (20 μM)” value in assay [1] amounted to 30000 nM.

The values above are taken from paper PMC5686756, “IKKγ-Mimetic Peptides Block the Resistance to Apoptosis Associated with Kaposi's Sarcoma-Associated Herpesvirus Infection” (Journal of Virology, 2017).
